Experimental data taken from patent publication US7098302B2, “Binding peptides specific for the extracellular domain of ErbB2 and uses therefor” (University of Vermont and State Agricultural College, priority 2001, dated 2006).

What was measured:
[1] = target: T1, native, intact ErbB2 extracted from the membranes of human breast cancer cells (Homo sapiens, UniProt P04626); test: ELISA of peptide phage on solubilized membrane lysates captured with anti-ErbB2 antibody; format: binding
T1 construct: native, intact ErbB2 extracted from the membranes of human breast cancer cells; endogenous in cells; host or cells: BT474 and SKBR3 breast cancer cells (MCF7 as low-expression control)
Protocol: The above identified peptide phage specifically bind to native, intact ErbB2 extracted from the membranes of human breast cancer cells that overexpress ErbB2. Plates were coated with 1 μg of an antibody that binds to the intracellular domain of ErbB2, followed by 100 μl of solubilized membrane preparations from two different breast cancer cell lines that overexpress ErbB2 (BT474 and SKBR3), and probed with CB1 peptide-phage, control library phage, and 9G6 anti-ErbB2. MCF7 cells serve as a (relative) negative target control, as MCF7 breast cancer cells express only a low level of ErbB2.
Peptide phage derived from the EC-1 biases library similarly bind specifically to membrane lysates from ErbB2 expressing SKBR3 cells but not to lysates from minimally expressing MCF7 cells. (See FIG. 2B.)

[2] = target: T2, ErbB2 (pY1248, pY877) in SKBR3 cells (Homo sapiens, UniProt P04626); test: ErbB2 phosphorylation, Western blot with phospho-specific ErbB2 antibodies and densitometry; format: cell-based
T2 construct: ErbB2 overexpressing SKBR3 cells were treated with the EC-1 free peptide; endogenous in cells; host or cells: SKBR3
Protocol: FIG. 6A is a Western blot analysis of SKBR3 cell lysates made at various times following 15 minute treatment with 25 μM EC-1 peptide. Blots were probed with pY1248 phospho ErbB2 antibody, pY877 phospho ErbB2 antibody and total ErbB2 antibody.
ErbB2 overexpressing SKBR3 cells were treated with the EC-1 free peptide to determine its effect on ErbB2 activation. When ErbB2 is activated it becomes phosphorylated on specific tyrosine residues (i.e., pY1248 and pY877). This is turn triggers downstream signal transduction events, culminating in increased cellular proliferation. Viable SKBR3 cells were treated with 25 μM EC-1 peptide for 15 minutes. At 0.5, 2, 4, 8, 22 and 48 hours thereafter, cell lysates were prepared and run on a Western blot using phospho-specific ErbB2 antibodies. […] (See FIG. 6B.) The peptide had no effect on total ErbB2 expression.

binding to membrane lysates from ErbB2 overexpressing cells by ELISA ([1]; BT474 and/or SKBR3 lysates): binding to SKBR3 | binding to membrane lysates from MCF7 cells by ELISA ([1]; MCF7 cells express only a low level of ErbB2): not to MCF7 | time for which phosphorylation of ErbB2 is inhibited after treatment ([2]; 25 μM EC-1): at least 8 hours | effect on total ErbB2 expression ([2]; 25 μM EC-1 peptide): no effect | inhibition of the phosphorylation of residues pY1248 and pY877 of ErbB2 ([2]; 25 μM EC-1 peptide for 15 minutes, after 0.5 hrs): 40%
Substance: WTGW C LNPEESTWGF C TGSF (WTGWCLNPEESTWGFCTGSF) [EC-1]
